Reference: patent publication US20160185876A1 (DEVELOPMENT CENTER FOR BIOTECHNOLOGY, published 2016)

Columns and labels:
human ENO1 protein [1] = biological target: T1, human ENO1 protein (human, UniProt P06733 1-434, limits assumed); assay: SPR, BIAcore 2000, ENO1 injected, 25 degree C
T1 construct: The source and construct of the ENO1 protein used in ELISA and SPR are not described; also called alpha-enolase; enolase-1
Description: To know the biding kinetics difference among individual antibodies, surface plasmon resonance (SPR) measurement with a BIAcore 2000 (BIAcore, Inc., Piscataway, N.J.) was used as previously described (Karlsson & Falt, (1997) J. Immunol Methods 200:121-133). Carboxymethylated dextran biosensor chips (CMS, BIAcore Inc.) were activated with N-ethyl-N′-(3-dimethylaminopropyl)-carbodiimide hydrochloride (EDC) and N-hydroxysuccinimide (NHS) according to the supplier's instructions. Chimera EN10 mAb was diluted with 10 mM sodium acetate, pH 4.8, into 5 microgram/ml before injection at a flow rate of 20 micro Uminute to achieve approximately 100 response units (RU) of coupled protein followed by the injection of 1M ethanolamine to block unreacted groups. For kinetics measurements, two-fold serial dilutions of ENO1 (0.3125 nM to 40 nM) were injected in HBS-P Biacore running buffer provided by the manufacturer (BIAcore, Inc., Piscataway, N.J.) at 25 degree C. at a flow rate of 25 microL/min, and binding responses on the EN10 mAb were corrected by subtraction of responses on a blank flow cell. Association rates (kon or ka) and dissociation rates (koff or kd) were calculated using a simple one-to-one Langmuir binding model with separate fittings of kon and koff was used. (BIAcore™ Evaluation Software version 3.2).

human ENO1 protein [2] = biological target: T1, human ENO1 protein; assay: ENO1 binding ELISA

T1 sequence (P06733 whole entry): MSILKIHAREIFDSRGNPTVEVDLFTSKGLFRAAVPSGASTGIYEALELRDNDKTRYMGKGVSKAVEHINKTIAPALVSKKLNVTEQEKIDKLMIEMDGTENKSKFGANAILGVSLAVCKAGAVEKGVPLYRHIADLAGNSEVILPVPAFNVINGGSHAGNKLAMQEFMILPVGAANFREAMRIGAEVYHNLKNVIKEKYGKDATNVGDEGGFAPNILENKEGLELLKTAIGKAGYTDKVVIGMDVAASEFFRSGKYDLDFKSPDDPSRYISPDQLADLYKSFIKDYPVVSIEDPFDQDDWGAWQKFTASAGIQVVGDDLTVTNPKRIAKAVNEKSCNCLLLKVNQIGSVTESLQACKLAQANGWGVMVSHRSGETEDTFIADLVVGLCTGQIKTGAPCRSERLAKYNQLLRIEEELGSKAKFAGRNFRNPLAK

B1: hum EN10 mAb 4D5 (antibody, V domains shown)
VH: EVQLVESGGGLVQPGGSLRLSCAASGYTFTSCVMNWVRQAPGKGLEWVAYINPYNDGTKYNEKFKGRFTISRDDSKNTLYLQMNSLRAEDTAVYYCAREGFYYGNFDNWGQGTLVTVSS
VL: DIQMTQSPSSLSASVGDRVTITCRASENIYSYLTWYQQKPGKAPKLLIYNAKTLPEGVPSRFSGSGSGTDFTLTISSLQPEDFATYYCQHHYGTPYTFGQGTKLEIKR
notes: Humanized variable regions on human IgG; also called humanized EN10 mAb 4D5; 4D5 humanized edition
B1 gave a Kd (human ENO1 protein [1]) of 0.5 nM, a koff (human ENO1 protein [1]) of 0.000176 s⁻¹ and a kon (human ENO1 protein [1]) of 351000 M⁻¹ s⁻¹.

B2: hum EN10 mAb IMGT (antibody, V domains shown)
VH: QVQLVQSGAEVKKPGASVKVSCKASGYTFTSCVMNWVRQAPGQGLEWMGYINPYNDGTKYNEKFKGRVTMTTDTSTSTAYMELRSLRSDDTAVYYCAREGFYYGNFDNWGQGTLVTVSS
VL: DIQMTQSPSSLSASVGDRVTITCRASENIYSYLTWYQQKPGKAPKLLIYNAKTLPEGVPSRFSGSGSGTDFTLTISSLQPEDFATYYCQHHYGTPYTFGQGTKLEIKR
notes: Humanized variable regions on human IgG; also called Hum EN10 IMGT; humanized EN10 mAb IMGT
B2 showed a Kd (human ENO1 protein [2]) of 0.0365 nM, a Kd (human ENO1 protein [1]) of 0.219 nM and a koff (human ENO1 protein [1]) of 0.000116 s⁻¹. It also gave a kon (human ENO1 protein [1]) of 531000 M⁻¹ s⁻¹.
